Consider 5 compounds from article PMC12615753, “Glutathione as a taste modulator: molecular mechanisms of interaction with umami and sweet taste receptors” (Food Chemistry: Molecular Sciences, 2025).

One test addresses T1, hTAS1R1/rTAS1R3 (UniProt Q7RTX1+Q923K1).
T1 construct: UniProtKB number Q7RTX1–1); The cDNA coding region of rTAS1R3 was synthesized with optimized-codon usage for human expression; expressed in transfected cells; host or cells: HEK293T/17 (ATCC CRL-11268)
T1 sequence (Q7RTX1 21-841): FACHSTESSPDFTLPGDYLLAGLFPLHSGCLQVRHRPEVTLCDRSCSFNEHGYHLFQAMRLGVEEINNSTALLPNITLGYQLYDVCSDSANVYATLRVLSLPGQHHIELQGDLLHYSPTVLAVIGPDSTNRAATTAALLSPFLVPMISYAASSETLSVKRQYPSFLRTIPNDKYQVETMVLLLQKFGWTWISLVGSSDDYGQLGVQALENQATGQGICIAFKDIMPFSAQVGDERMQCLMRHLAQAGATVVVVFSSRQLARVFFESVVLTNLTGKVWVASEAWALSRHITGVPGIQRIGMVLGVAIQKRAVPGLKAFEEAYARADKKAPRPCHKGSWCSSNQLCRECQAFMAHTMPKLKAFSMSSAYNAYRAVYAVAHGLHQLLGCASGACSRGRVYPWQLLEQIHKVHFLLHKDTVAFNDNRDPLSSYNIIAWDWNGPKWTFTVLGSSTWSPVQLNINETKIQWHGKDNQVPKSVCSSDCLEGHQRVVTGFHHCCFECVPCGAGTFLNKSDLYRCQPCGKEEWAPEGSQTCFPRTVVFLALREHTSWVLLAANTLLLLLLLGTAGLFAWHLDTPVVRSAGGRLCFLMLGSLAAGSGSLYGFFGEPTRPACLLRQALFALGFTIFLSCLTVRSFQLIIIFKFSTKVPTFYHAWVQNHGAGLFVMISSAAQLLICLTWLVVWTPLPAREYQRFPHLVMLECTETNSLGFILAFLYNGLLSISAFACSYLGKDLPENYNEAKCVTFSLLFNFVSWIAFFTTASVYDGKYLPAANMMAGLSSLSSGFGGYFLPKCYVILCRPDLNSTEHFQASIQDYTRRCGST
T1 sequence (Q923K1 21-858): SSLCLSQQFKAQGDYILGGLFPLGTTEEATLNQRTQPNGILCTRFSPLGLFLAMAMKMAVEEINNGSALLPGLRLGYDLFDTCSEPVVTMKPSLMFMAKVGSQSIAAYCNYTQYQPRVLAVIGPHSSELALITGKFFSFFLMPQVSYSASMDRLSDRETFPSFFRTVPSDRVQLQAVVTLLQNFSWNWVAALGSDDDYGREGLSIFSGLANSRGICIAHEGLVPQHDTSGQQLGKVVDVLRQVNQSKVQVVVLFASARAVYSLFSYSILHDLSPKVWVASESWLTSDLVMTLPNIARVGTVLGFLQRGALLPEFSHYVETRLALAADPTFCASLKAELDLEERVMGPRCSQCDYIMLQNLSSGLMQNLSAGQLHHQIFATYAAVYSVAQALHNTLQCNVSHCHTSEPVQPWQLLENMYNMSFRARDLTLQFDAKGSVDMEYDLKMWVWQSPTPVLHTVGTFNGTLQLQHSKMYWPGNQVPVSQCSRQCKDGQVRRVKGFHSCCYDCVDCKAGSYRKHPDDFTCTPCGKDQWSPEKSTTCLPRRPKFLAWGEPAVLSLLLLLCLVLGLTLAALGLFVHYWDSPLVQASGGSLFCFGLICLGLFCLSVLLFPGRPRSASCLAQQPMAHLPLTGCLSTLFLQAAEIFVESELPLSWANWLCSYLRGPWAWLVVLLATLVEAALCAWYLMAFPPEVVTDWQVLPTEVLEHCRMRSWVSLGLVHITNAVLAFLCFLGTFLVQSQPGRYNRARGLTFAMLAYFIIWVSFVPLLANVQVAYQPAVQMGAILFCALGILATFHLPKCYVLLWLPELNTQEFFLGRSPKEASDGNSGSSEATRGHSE
Nature of the test: Calcium assay (GCaMP6s, Gα15i2) in transiently transfected HEK293T/17 cells. The class given is cell-based, human, rat. As for the experimental part:
To this end, hTAS1R1/rTAS1R3 and the chimeric G protein Gα15i2 were transiently expressed in HEK293T cells. Cellular responses were assessed via calcium imaging using a fluorescent protein calcium biosensor (GCaMP6s) and compared with those of mock-transfected cells.

Another test deals with umami perception. The conditions noted are these: ref Shigemura et al., 2009, cited from earlier work.
The target in test [1] is hTAS1R1 subunit expressed alone (human) (UniProt Q7RTX1).
In test [2] the target is hTAS1R1/rTAS1R3 umami taste receptor (wild type) (human | rat) (UniProt Q7RTX1).
Test [3] addresses hTAS1R2/rTAS1R3 sweet taste receptor (human | rat) (UniProt Q8TE23).
Test [4] addresses hTAS1R2/hTAS1R3 sweet taste receptor (human) (UniProt Q8TE23).
The target in test [5] is hTAS1R1(H71A)/rTAS1R3 (human | rat) (UniProt Q7RTX1).
Test [6] has as its target hTAS1R1(Q278A)/rTAS1R3 (human | rat) (UniProt Q7RTX1).
Test [7] deals with hTAS1R1(A170W)/rTAS1R3 (human | rat) (UniProt Q7RTX1).
Test [8] deals with hTAS1R1(R277A)/rTAS1R3 (human | rat) (UniProt Q7RTX1).
Test [9] deals with hTAS1R1(H308A)/rTAS1R3 (human | rat) (UniProt Q7RTX1).
For test [10], the target named is hTAS1R1(R151A)/rTAS1R3 (human | rat) (UniProt Q7RTX1).
Test [11] concerns the target hTAS1R1(L223A)/rTAS1R3 (human | rat) (UniProt Q7RTX1).
Test [12] deals with hTAS1R1(D192A)/rTAS1R3 (human | rat) (UniProt Q7RTX1).
Test [13] deals with hTAS1R1/rTAS1R3 umami taste receptor (wild type) (human | rat) (UniProt Q7RTX1). This is another data set of the same source.
Test [14] addresses hTAS1R1(Q278Y)/rTAS1R3 (human | rat) (UniProt Q7RTX1).
Test [15] deals with hTAS1R1(H71L)/rTAS1R3 (human | rat) (UniProt Q7RTX1).
In test [16] the target is hTAS1R1(A302W)/rTAS1R3 (human | rat) (UniProt Q7RTX1).
Test [17] addresses hTAS1R1(Q278K)/rTAS1R3 (human | rat) (UniProt Q7RTX1).

Read-outs that look alike come from different tables or passages of the source.

Chain of hTAS1R2/rTAS1R3 sweet taste receptor (human | rat) (Q8TE23 20-839): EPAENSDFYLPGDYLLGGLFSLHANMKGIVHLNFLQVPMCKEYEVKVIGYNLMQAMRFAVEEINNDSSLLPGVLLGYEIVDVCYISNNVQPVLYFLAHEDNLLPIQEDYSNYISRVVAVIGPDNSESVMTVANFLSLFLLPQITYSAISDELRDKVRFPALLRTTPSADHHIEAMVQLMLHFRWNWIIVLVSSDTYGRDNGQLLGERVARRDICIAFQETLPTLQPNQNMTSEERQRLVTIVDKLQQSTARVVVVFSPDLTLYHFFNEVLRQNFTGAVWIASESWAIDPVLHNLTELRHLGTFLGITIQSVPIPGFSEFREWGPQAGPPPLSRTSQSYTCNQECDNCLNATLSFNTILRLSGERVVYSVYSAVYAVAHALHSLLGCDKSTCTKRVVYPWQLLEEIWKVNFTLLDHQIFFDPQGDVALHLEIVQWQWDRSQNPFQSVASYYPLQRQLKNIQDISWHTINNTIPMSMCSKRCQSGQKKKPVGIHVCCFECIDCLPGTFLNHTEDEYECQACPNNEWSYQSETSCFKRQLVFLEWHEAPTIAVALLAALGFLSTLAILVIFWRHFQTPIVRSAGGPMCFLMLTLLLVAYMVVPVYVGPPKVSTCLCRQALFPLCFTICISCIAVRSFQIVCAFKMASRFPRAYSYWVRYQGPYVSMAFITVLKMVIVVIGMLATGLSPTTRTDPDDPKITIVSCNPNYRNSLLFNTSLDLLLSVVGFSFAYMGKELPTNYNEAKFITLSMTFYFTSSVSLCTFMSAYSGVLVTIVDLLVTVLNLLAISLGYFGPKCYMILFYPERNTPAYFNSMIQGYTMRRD
Chain of hTAS1R2/hTAS1R3 sweet taste receptor (human) (Q8TE23 20-839, chain 1 of 2): as the sequence (Q8TE23 20-839) above
Chain of hTAS1R2/hTAS1R3 sweet taste receptor (human) (Q7RTX0 21-852, chain 2 of 2, further chain): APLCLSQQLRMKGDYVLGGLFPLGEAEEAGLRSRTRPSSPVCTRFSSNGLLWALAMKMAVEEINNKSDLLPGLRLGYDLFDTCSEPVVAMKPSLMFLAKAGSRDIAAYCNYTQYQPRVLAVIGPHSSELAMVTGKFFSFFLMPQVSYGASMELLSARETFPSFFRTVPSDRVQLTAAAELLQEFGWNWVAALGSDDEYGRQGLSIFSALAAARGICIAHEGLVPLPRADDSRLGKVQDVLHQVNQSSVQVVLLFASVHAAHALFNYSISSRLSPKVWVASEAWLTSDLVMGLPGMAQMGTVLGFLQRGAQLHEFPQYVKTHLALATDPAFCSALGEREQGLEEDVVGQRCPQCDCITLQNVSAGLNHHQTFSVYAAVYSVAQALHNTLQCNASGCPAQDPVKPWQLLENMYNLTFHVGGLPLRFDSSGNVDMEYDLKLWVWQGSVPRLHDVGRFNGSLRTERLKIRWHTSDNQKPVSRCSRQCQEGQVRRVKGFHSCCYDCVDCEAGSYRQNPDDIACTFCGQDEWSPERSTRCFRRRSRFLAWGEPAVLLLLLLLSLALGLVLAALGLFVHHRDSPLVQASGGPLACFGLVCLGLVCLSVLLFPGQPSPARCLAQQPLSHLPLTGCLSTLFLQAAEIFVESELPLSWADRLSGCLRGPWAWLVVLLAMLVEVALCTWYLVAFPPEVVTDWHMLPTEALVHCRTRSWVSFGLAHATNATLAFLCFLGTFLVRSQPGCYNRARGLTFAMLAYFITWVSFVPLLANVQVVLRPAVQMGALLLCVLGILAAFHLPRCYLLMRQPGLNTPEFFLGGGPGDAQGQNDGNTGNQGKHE

On to `Nc1nc2c(ncn2[C@@H]2O[C@H](COP(=O)(O)O)[C@@H](O)[C@H]2O)c(=O)[nH]1` [GMP, guanosine 5′-monophosphate, reference compound], for which the “effect of the added 5′-ribonucleotide on the response to GSH” value on hTAS1R1/rTAS1R3 (Fig. 6C–D) was “did not significantly increase”. Also, on hTAS1R1/rTAS1R3 (compound alone), the “activation of the receptor” value was “did not activate”.
In the case of `N[C@@H](CCC(=O)N[C@@H](CS)C(=O)O)C(=O)O` [Glu-Cys, γ-L-Glutamyl-L-cysteine], on hTAS1R1/rTAS1R3 (agonist alone, Fig. 1, Fig. S2), the EC50 was 3.2 ± 1.54 mM and the “max ∆F/F0” value is 0.42 ± 0.07.
On to `N[C@@H](CCC(=O)O)C(=O)[O-].[Na+]` [MSG, monosodium glutamate], for which the sensory recognition threshold in the test on umami perception (MSG alone) is 7.66 mM; with umami perception (in the presence of 0.05 mM IMP), 0.20 mM.
As to “Reduced L-glutathione (γ-L-glutamyl-L-cysteinyl-glycine) (peptide)”, the EC50 of GSH in the presence of 0.1 μM S807, calcium response of HEK293 cells expressing hTAS1R1 alone in test [1] came to 0.281 mM. The EC50 of GSH, calcium response (GCaMP6s fluorescence) of transfected HEK293T cells in [2] was found to be 2.15 mM. Moreover, the EC50 of GSH, calcium response of cells expressing the sweet taste receptor was 4.06 mM in test [3] and 0.591 mM in [4]. The EC50 of GSH, calcium response of transfected HEK293 cells in test [5] amounted to 2.03 mM; in [6], 3.42 mM; in test [7], 5.29 mM; in test [8] it was 1.84 mM; in test [9] it was 3.25 mM; in test [10], 2.59 mM. For the same compound, the EC50 of GSH, calcium response of transfected HEK293 cells in test [11] was found to be 2.32 mM; in test [12], 3.25 mM; in test [14] it was 3.96 mM; in [15], 2.27 mM; in [16], 5.32 mM; in test [17], 5.66 mM. Further, the EC50 of GSH, calcium response of transfected HEK293 cells (mutant series) in test [13] stood at 2.52 mM.
Turning to γ-L-Glutamyl-L-cysteine (peptide), the EC50 of Glu-Cys, calcium response (GCaMP6s fluorescence) of transfected HEK293T cells in [2] was 3.2 mM.
